Data reported in US7858322B2, “Method of determining inhibition of binding to TRPM7 protein” (NoNo, Inc., priority 2003, dated 2010).
No end group written: not given here. *: point of attachment. Biotin = O=C1N[C@H]2[C@H](CS[C@H]2CCCCC(=O)*)N1

The sequences below were run against T1, INADL d3 (Homo sapiens, UniProt Q8NI35) (assay: G assays, titrations or binding assays of peptides). Conditions: peptide demonstrated to bind INADL d3 in G assays.
T1 construct: made in house; host or cells: E. coli (DH5α, BL21 or JM109)
T1 sequence (Q8NI35 with tags, fused parts or gaps): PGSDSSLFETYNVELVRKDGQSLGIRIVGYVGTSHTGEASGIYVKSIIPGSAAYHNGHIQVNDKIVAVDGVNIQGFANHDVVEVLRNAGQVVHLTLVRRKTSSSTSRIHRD

Row | Sequence | POZ domain bound
1 | SLIGPVQKEYQRELGKLSSP (Biotin-SLIGPVQKEYQRELGKLSSP) | INADL D3
2 | VPSDNIDSQGRNASTNDSLL (Biotin-VPSDNIDSQGRNASTNDSLL) | INADL D3
3 | RSGATIPLVGQDIIDLQTEV (Biotin-RSGATIPLVGQDIIDLQTEV) | INADL D3
4 | FHSKTAGANTTDKELEVLSL (Biotin-FHSKTAGANTTDKELEVLSL) | INADL D3
5 | PGQPPKVKSEFNSYSLTGYV (Biotin-PGQPPKVKSEFNSYSLTGYV) | INADL D3
6 | TTNNNPNSAVNIKKIFTDV (Biotin-TTNNNPNSAVNIKKIFTDV) | INADL D3
7 | LQFHRGSRAQSFLQTETSVI (Biotin-LQFHRGSRAQSFLQTETSVI) | INADL D3
8 | STDNLVRPFMDTLASHQLYI (Biotin-STDNLVRPFMDTLASHQLYI) | INADL D3
9 | YSATYSELEDPGEMSPPIDL (Biotin-YSATYSELEDPGEMSPPIDL) | INADL D3
10 | LNSCSNRRVYKKMPSIESDV (Biotin-LNSCSNRRVYKKMPSIESDV) | INADL D3
11 | VDPNSPAAKKKYVSYNNLVI (Biotin-VDPNSPAAKKKYVSYNNLVI) | INADL D3
12 | YGRKKRRQRRRAVAATSANL | INADL D3
13 | ENLELPVNPSSWSERISSV | INADL D3
14 | HAMNAAPRAMENAPALRTSH (Biotin-HAMNAAPRAMENAPALRTSH) | INADL D3
15 | KHSRKSSSYSSSSTTVKTSY (Biotin-KHSRKSSSYSSSSTTVKTSY) | INADL D3
16 | YGRKKRRQRRREYLGLDVPV | INADL D3
17 | LASKSAEEGKQIPDSLSTDL (Biotin-LASKSAEEGKQIPDSLSTDL) | INADL D3
18 | ELLQFCRTPNPALKNGQYWV (Biotin-ELLQFCRTPNPALKNGQYWV) | INADL D3

What follows are sequences tested against T2, PAR3 d3 (Homo sapiens, UniProt Q8TEW0, R682S) (assay: G assays, titrations or binding assays of peptides). Conditions: peptide demonstrated to bind PAR3 d3 in G assays.
T2 construct: made in house; host or cells: E. coli (DH5α, BL21 or JM109)
T2 sequence (Q8TEW0 with tags, fused parts or gaps R682S): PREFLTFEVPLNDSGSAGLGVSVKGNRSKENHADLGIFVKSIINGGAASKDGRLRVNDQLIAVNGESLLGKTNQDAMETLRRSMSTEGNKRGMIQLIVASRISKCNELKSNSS
Protocol: (§1) In one aspect, the invention provides an assay in which a GST/PDZ fusion protein is immobilized on a surface (G assay). […] In a preferred embodiment, the assay is carried out as follows:
(§2) (1) A PDZ-domain polypeptide is bound to a surface, e.g. a protein binding surface. In a preferred embodiment, a GST/PDZ fusion protein containing one or more PDZ domains is bound to a polystyrene 96-well plate. […] In one embodiment, the GST/PDZ fusion protein is bound via an anti-GST antibody that is coated onto the 96-well plate. Adequate binding to the plate can be achieved when: • a. 100 μl per well of 5 μg/ml goat anti-GST polyclonal antibody (Pierce) in PBS is added to a polystyrene 96-well plate (e.g., Nunc Polysorp) at 4° C. for 12 hours. • b. The plate is blocked by addition of 200 μl per well of PBS/BSA for 2 hours at 4° C. • c. The plate is washed 3 times with PBS. • d. 50 μl per well of 5 μg/ml GST/PDZ fusion protein) or, as a negative control, GST polypeptide alone (i.e. not a fusion protein) in PBS/BSA is added to the plate for 2 hours at 4° C. • e. the plate is again washed 3 times with PBS.
(§3) (2) Biotinylated PL peptides are allowed to react with the surface by addition of 50 μl per well of 20 μM solution of the biotinylated peptide in PBS/BSA for 10 minutes at 4° C., followed by an additional 20 minute incubation at 25° C. The plate is washed 3 times with ice cold PBS.
(§4) (3) The binding of the biotinylated peptide to the GST/PDZ fusion protein surface can be detected using a variety of methods and detectors known to one of skill in the art. In one embodiment, 100 μl per well of 0.5 μg/ml streptavidin-horseradish peroxidase (HRP) conjugate dissolved in BSA/PBS is added and allowed to react for 20 minutes at 4° C. The plate is then washed 5 times with 50 mM Tris pH 8.0 containing 0.2% Tween 20, and developed by addition of 100 μl per well of HRP-substrate solution (TMB, Dako) for 20 minutes at room temperature (RT). The reaction of the HRP and its substrate is terminated by addition of 100 μl per well of 1 M sulfuric acid, and the optical density (O.D.) of each well of the plate is read at 450 um.
(§5) (4) Specific binding of a PL peptide and a PDZ domain polypeptide is determined by comparing the signal from the well(s) in which the PL peptide and PDZ domain polypeptide are combined, with the background signal(s). […] Typically a specific or selective reaction will be at least twice background signal, more typically more than 5 times background, and most typically 10 or more times the background signal. […] Correspondingly, a statistical test (e.g. a T-test) comparing repeated measurements of the signal with repeated measurements of the background will result in a p-value <0.05, more typically a p-value <0.01, and most typically a p-value <0.001 or less. As noted, in an embodiment of the G assay, the signal from binding of a given PL peptide to immobilized (surface bound) GST polypeptide alone is one suitable negative control (sometimes referred to as B1). Because all measurement are done in multiples (i.e. at least duplicate) the arithmetic mean (or, equivalently, average.) of several measurements is used in determining the binding, and the standard error of the mean is used in determining the probable error in the measurement of the binding. The standard error of the mean of N measurements equals the square root of the following: the sum of the squares of the difference between each measurement and the mean, divided by the product of (N) and (N−1). Thus, in one embodiment, specific binding of the PDZ protein to the platebound peptide is determined by comparing the mean signal (“mean S”) and standard error of the signal (“SE”) for a particular PL-PDZ combination with the mean B1.

Row | Sequence | POZ domain bound
19 | YGRKKRRQRRRSEGVPDLLV | PAR3 D3
20 | FHSKTAGANTTDKELEVLSL (Biotin-FHSKTAGANTTDKELEVLSL) | PAR3 D3
21 | QGDPALQDAGDSSRKEYFI (Biotin-QGDPALQDAGDSSRKEYFI) | PAR3 D3
22 | PGQPPKVKSEFNSYSLTGYV (Biotin-PGQPPKVKSEFNSYSLTGYV) | PAR3 D3
23 | DGGARTEDEVQSYPSKHDYV (Biotin-DGGARTEDEVQSYPSKHDYV) | PAR3 D3
24 | LQFHRGSRAQSFLQTETSVI (Biotin-LQFHRGSRAQSFLQTETSVI) | PAR3 D3
25 | STDNLVRPFMDTLASHQLYI (Biotin-STDNLVRPFMDTLASHQLYI) | PAR3 D3
26 | KTMPAATYRLLTGQEQPVYL (Biotin-KTMPAATYRLLTGQEQPVYL) | PAR3 D3
27 | KYSAPRRPTATGDYDKKNYV (Biotin-KYSAPRRPTATGDYDKKNYV) | PAR3 D3
28 | YGRKKRRQRRRGASADSTQA | PAR3 D3
29 | VDPNSPAAKKKYVSYNNLVI (Biotin-VDPNSPAAKKKYVSYNNLVI) | PAR3 D3
30 | YGRKKRRQRRRAVAATSANL | PAR3 D3
31 | KTMPAAMYRLLTAQEQPVYI (Biotin-KTMPAAMYRLLTAQEQPVYI) | PAR3 D3
32 | KHSRKSSSYSSSSTTVKTSY (Biotin-KHSRKSSSYSSSSTTVKTSY) | PAR3 D3
33 | LERTSSVSPSTAEPELSIVF (Biotin-LERTSSVSPSTAEPELSIVF) | PAR3 D3
34 | KTMPAAMFRLLTGQETPLYI (Biotin-KTMPAAMFRLLTGQETPLYI) | PAR3 D3
35 | YGRKKRRQRRREYLGLDVPV | PAR3 D3
36 | LASKSAEEGKQIPDSLSTDL (Biotin-LASKSAEEGKQIPDSLSTDL) | PAR3 D3
37 | ELLQFCRTPNPALKNGQYWV (Biotin-ELLQFCRTPNPALKNGQYWV) | PAR3 D3
38 | SSPDSSYQGKGFVMSRAMYV (Biotin-SSPDSSYQGKGFVMSRAMYV) | PAR3 D3
39 | KAGYRAPRSYPKSNSSKEYV (Biotin-KAGYRAPRSYPKSNSSKEYV) | PAR3 D3

The sequences below were run against T3, RIM2 d1 (Homo sapiens, UniProt Q9UQ26) (assay: G assays, titrations or binding assays of peptides). Conditions: peptide demonstrated to bind RIM2 d1 in G assays.
T3 construct: made in house; host or cells: E. coli (DH5α, BL21 or JM109)
T3 sequence (Q9UQ26 632-757): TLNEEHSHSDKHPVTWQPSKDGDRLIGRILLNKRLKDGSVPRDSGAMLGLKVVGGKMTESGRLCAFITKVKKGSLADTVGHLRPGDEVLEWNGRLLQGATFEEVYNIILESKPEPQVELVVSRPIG
Protocol: as §1, §2, §3, §4, §5

Row | Sequence | POZ domain bound
40 | YGRKKRRQRRRARGDRRRIV (Biotin-YGRKKRRQRRRARGDRRRIV) | RIM2 D1
41 | YGRKKRRQRRRQDEEEGIWS (Biotin-YGRKKRRQRRRQDEEEGIWS) | RIM2 D1
42 | YGRKKRRQRRRAVAAASANL (Biotin-YGRKKRRQRRRAVAAASANL) | RIM2 D1
43 | FHSKTAGANTTDKELEVLSL (Biotin-FHSKTAGANTTDKELEVLSL) | RIM2 D1
44 | SSSRRDSSWSETSEASYSGL (Biotin-SSSRRDSSWSETSEASYSGL) | RIM2 D1
45 | YGRKKRRQRRRARSDRGIWA (Biotin-YGRKKRRQRRRARSDRGIWA) | RIM2 D1
46 | YGRKKRRQRRRARGDVRLML (Biotin-YGRKKRRQRRRARGDVRLML) | RIM2 D1
47 | YGRKKRRQRRRARSDRKRIV (Biotin-YGRKKRRQRRRARSDRKRIV) | RIM2 D1
48 | YGRKKRRQRRRARGDRLEIV (Biotin-YGRKKRRQRRRARGDRLEIV) | RIM2 D1
49 | YGRKKRRQRRRSRTVREIWA (Biotin-YGRKKRRQRRRSRTVREIWA) | RIM2 D1
50 | NYKLNTDHAGSNDNIALLVQ | RIM2 D1
51 | YGRKKRRQRRRQDERVETRV (Biotin-YGRKKRRQRRRQDERVETRV) | RIM2 D1
52 | YGRKKRRQRRRARSDRKRIA (Biotin-YGRKKRRQRRRARSDRKRIA) | RIM2 D1
53 | YGRKKRRQRRRSVTSTSINL (Biotin-YGRKKRRQRRRSVTSTSINL) | RIM2 D1
54 | YGRKKRRQRRRGASADSTQA | RIM2 D1
55 | YGRKKRRQRRRARGDRKRWA (Biotin-YGRKKRRQRRRARGDRKRWA) | RIM2 D1
56 | YGRKKRRQRRRARGDRKRIV | RIM2 D1
57 | VDPNSPAAKKKYVSYNNLVI (Biotin-VDPNSPAAKKKYVSYNNLVI) | RIM2 D1
58 | YGRKKRRQRRRAVAATSANL | RIM2 D1
59 | YGRKKRRQRRRLQRRRETQV (Biotin-YGRKKRRQRRRLQRRRETQV) | RIM2 D1
60 | YGRKKRRQRRRAVAATYSNL (Biotin-YGRKKRRQRRRAVAATYSNL) | RIM2 D1
61 | YGRKKRRQRRRGMTSSSSVV (Biotin-YGRKKRRQRRRGMTSSSSVV) | RIM2 D1
62 | KHSRKSSSYSSSSTTVKTSY (Biotin-KHSRKSSSYSSSSTTVKTSY) | RIM2 D1
63 | YGRKKRRQRRRQDEEEGIWA (Biotin-YGRKKRRQRRRQDEEEGIWA) | RIM2 D1
64 | YGRKKRRQRRREYLGLDVPV | RIM2 D1
65 | YGRKKRRQRRRARGDRKRWL (Biotin-YGRKKRRQRRRARGDRKRWL) | RIM2 D1
66 | YGRKKRRQRRRARGDRKKIV (Biotin-YGRKKRRQRRRARGDRKKIV) | RIM2 D1
67 | YGRKKRRQRRRAVAATGIWA (Biotin-YGRKKRRQRRRAVAATGIWA) | RIM2 D1
68 | YGRKKRRQRRRQDEEETIWA (Biotin-YGRKKRRQRRRQDEEETIWA) | RIM2 D1

These sequences were tested against T4, ZO-1 d2 (Homo sapiens, UniProt Q07157, DEL264-264) (assay: G assays, titrations or binding assays of peptides). Conditions: peptide demonstrated to bind ZO-1 d2 in G assays.
T4 construct: made in house; host or cells: E. coli (DH5α, BL21 or JM109)
T4 sequence (Q07157 with tags, fused parts or gaps DEL264-264): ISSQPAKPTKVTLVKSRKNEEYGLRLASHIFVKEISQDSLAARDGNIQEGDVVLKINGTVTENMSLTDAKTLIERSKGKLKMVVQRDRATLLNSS
Protocol: as §1, §2, §3, §4, §5

Row | Sequence | POZ domain bound
69 | RRRRRRRGTNPAVAATSANL (Biotin-RRRRRRRGTNPAVAATSANL) | ZO-1 D2
70 | YGRKKRRQRRRAVAAASANL (Biotin-YGRKKRRQRRRAVAAASANL) | ZO-1 D2
71 | YGRKKRRQRRRSEGVPDLLV | ZO-1 D2
72 | TEGNESSEATSPVNAIYSLA (Biotin-TEGNESSEATSPVNAIYSLA) | ZO-1 D2
73 | FHSKTAGANTTDKELEVLSL (Biotin-FHSKTAGANTTDKELEVLSL) | ZO-1 D2
74 | SSSRRDSSWSETSEASYSGL (Biotin-SSSRRDSSWSETSEASYSGL) | ZO-1 D2
75 | YGRKKRRQRRRARSDRGIWA (Biotin-YGRKKRRQRRRARSDRGIWA) | ZO-1 D2
76 | TTNNNPNSAVNIKKIFTDV (Biotin-TTNNNPNSAVNIKKIFTDV) | ZO-1 D2
77 | YGRKKRRQRRRDKELEVLSL | ZO-1 D2
78 | NYKLNTDHAGSNDNIALLVQ | ZO-1 D2
79 | RRRRRRRGNTTDKELEVLSL (Biotin-RRRRRRRGNTTDKELEVLSL) | ZO-1 D2
80 | LNSCSNRRVYKKMPSIESDV (Biotin-LNSCSNRRVYKKMPSIESDV) | ZO-1 D2
81 | YGRKKRRQRRRGASADSTQA | ZO-1 D2
82 | YGRKKRRQRRRARGDRKRWA (Biotin-YGRKKRRQRRRARGDRKRWA) | ZO-1 D2
83 | YGRKKRRQRRRARGDRKRIV | ZO-1 D2
84 | VDPNSPAAKKKYVSYNNLVI (Biotin-VDPNSPAAKKKYVSYNNLVI) | ZO-1 D2
85 | YGRKKRRQRRRAVAATSANL | ZO-1 D2
86 | YVYSRVKNLNSSEGVPDLLV | ZO-1 D2
87 | YGRKKRRQRRRAVAATYSNL (Biotin-YGRKKRRQRRRAVAATYSNL) | ZO-1 D2
88 | KHSRKSSSYSSSSTTVKTSY (Biotin-KHSRKSSSYSSSSTTVKTSY) | ZO-1 D2
89 | YGRKKRRQRRRQDEEEGIWA (Biotin-YGRKKRRQRRRQDEEEGIWA) | ZO-1 D2
90 | YGRKKRRQRRREYLGLDVPV | ZO-1 D2
91 | PSSRASSRASSRPRPDDLEI (Biotin-PSSRASSRASSRPRPDDLEI) | ZO-1 D2
92 | YGRKKRRQRRRARGDRKRWL (Biotin-YGRKKRRQRRRARGDRKRWL) | ZO-1 D2
93 | ELLQFCRTPNPALKNGQYWV (Biotin-ELLQFCRTPNPALKNGQYWV) | ZO-1 D2
